Results from patent US20230056821A1.
pKd: −log10 of the molar value.

Legend:
[1] = molecular target: C4b (human) (UniProt P0C0L4); experiment: cell-based or functional assay
[2] = molecular target: C3b (UniProt P01024); experiment: cell-based or functional assay
[3] = molecular target: C4b (human) (UniProt P0C0L4); experiment: SPR, Biacore T200
[4] = molecular target: C3b (UniProt P01024); experiment: SPR, Biacore T200
[5] = molecular target: VEGF-A165 (human) (UniProt P15692); experiment: cell-based or functional assay
[6] = molecular target: T1, PlGF (UniProt P49763); experiment: SPR, Biacore T200
T1 sequence (looked up): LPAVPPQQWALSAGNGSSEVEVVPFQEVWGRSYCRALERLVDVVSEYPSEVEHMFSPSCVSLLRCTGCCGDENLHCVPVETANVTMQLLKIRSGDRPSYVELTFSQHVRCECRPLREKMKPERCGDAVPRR

[7] = molecular target: VEGF-A165 (human) (UniProt P15692); experiment: SPR, Biacore T200
[8] = molecular target: VEGF-A121 (UniProt P15692); experiment: SPR, Biacore T200
Chain of VEGF-A121 (P15692 other isoform, or with tags, fused parts or gaps limits assumed): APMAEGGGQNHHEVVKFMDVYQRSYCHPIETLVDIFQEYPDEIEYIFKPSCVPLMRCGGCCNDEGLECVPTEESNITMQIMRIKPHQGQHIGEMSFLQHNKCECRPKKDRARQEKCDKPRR

Chain of VEGF-A165 (human) (P15692 other isoform, or with tags, fused parts or gaps limits assumed): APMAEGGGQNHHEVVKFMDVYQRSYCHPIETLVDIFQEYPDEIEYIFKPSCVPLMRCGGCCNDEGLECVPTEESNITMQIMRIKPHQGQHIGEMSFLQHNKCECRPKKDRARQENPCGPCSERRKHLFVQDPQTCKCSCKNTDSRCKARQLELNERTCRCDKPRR
Chain of C4b (human) (P0C0L4 20-1744): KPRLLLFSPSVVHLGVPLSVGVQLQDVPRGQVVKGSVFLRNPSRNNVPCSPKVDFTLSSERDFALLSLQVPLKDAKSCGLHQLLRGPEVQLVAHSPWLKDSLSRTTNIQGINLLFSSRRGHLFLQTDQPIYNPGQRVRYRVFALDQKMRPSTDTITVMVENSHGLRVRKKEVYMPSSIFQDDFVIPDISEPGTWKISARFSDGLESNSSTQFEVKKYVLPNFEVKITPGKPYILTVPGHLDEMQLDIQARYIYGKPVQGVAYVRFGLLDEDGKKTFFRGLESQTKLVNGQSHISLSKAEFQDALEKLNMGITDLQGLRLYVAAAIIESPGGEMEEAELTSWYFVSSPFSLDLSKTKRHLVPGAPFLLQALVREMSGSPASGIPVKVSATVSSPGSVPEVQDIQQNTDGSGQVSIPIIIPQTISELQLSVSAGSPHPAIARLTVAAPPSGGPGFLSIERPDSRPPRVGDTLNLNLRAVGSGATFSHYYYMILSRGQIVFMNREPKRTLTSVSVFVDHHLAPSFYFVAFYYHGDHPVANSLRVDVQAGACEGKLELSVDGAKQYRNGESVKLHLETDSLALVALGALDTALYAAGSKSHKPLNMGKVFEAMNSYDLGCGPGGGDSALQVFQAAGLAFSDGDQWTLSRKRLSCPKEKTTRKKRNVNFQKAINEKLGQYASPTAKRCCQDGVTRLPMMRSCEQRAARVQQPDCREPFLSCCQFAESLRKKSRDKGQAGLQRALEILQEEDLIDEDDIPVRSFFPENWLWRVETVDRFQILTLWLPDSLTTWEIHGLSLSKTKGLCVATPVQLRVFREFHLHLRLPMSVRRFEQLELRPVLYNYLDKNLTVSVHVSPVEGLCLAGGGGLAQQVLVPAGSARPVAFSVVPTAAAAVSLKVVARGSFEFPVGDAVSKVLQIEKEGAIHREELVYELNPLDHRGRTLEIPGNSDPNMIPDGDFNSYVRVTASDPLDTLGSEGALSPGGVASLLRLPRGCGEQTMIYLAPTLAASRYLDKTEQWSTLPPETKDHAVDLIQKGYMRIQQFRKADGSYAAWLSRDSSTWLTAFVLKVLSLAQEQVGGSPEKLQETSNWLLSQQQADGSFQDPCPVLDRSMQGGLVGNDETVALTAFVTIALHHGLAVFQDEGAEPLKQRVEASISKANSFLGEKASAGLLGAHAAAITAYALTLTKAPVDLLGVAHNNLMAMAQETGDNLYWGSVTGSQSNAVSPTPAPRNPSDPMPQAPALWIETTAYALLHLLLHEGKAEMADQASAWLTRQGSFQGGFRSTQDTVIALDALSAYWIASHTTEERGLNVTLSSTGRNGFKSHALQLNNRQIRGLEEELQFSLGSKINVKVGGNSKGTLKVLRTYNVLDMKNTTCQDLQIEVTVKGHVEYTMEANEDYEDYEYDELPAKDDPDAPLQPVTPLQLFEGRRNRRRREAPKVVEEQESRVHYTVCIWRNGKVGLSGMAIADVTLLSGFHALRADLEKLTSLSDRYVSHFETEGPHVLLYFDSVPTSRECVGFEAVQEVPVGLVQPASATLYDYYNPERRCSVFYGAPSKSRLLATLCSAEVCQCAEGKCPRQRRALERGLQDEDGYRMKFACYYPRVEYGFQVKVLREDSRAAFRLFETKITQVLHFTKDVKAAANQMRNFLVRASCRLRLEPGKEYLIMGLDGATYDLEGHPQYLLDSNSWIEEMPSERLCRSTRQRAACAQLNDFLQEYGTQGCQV
Chain of Aflibercept injection (Fc fusion) (chain): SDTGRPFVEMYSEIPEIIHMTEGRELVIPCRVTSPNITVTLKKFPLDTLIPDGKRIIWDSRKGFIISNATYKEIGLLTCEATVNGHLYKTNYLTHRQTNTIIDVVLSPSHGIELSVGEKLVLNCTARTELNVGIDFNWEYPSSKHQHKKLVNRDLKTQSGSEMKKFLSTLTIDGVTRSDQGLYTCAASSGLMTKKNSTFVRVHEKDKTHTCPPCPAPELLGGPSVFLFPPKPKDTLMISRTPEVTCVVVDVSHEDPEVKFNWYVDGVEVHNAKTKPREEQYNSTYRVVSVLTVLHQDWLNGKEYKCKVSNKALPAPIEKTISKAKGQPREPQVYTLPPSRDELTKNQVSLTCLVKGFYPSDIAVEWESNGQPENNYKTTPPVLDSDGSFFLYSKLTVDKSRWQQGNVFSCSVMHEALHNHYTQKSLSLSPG

Work on IBI302 (Fc fusion) yielded an EC50, inhibition of hemolysis of rabbit red blood cells induced by human serum complement (alternative pathway) [1] of 14.6 nM, an EC50, inhibition of hemolysis of sensitized sheep red blood cells induced by human serum complement (classical pathway) [1] of 2.51 nM and an EC50, inhibition of hemolysis of rabbit red blood cells induced by human serum complement (alternative pathway) [2] of 14.6 nM. The EC50, inhibition of hemolysis of sensitized sheep red blood cells induced by human serum complement (classical pathway) [2] was 2.51 nM, the pKd [3] was 8.11 and the koff [3] was 0.00335 s⁻¹. It also gave a kon [3] of 432000 M⁻¹ s⁻¹, a pKd [4] of 8.00 and a koff [4] of 0.00287 s⁻¹. It also gave a kon [4] of 288000 M⁻¹ s⁻¹.

Work on Aflibercept injection (Fc fusion) yielded an EC50 (ng/mL), inhibition of VEGF-A-induced HUVEC proliferation (CCK-8) [5] of 41 ng/mL, an EC50, inhibition of VEGF-A-induced HUVEC proliferation (CCK-8) [5] of 357 pmol/L and a pKd [6] of 8.94. It also gave a koff [6] of 0.00384 s⁻¹, a kon [6] of 3.32e+06 M⁻¹ s⁻¹ and a pKd [7] of 11.41. The koff [7] was 7.93e-05 s⁻¹, the kon [7] was 2.05e+07 M⁻¹ s⁻¹ and the pKd [8] was 11.11. It also gave a koff [8] of 4.25e-05 s⁻¹ and a kon [8] of 5.46e+06 M⁻¹ s⁻¹.

With “Human complement receptor type 1 (from UniProt P17927 42-1971)” the pKd [3] was 7.77, the koff [3] was 0.000805 s⁻¹ and the kon [3] was 47000 M⁻¹ s⁻¹. For the same substance, the pKd [4] was 9.46, the koff [4] was 0.0011 s⁻¹ and the kon [4] was 3.16e+06 M⁻¹ s⁻¹.
